2 proteins from patent US9273290B2, “Method for producing phosphite dehydrogenase protein and use thereof” (priority 2011, dated 2016) can be followed below.

Several values for one entry are separate records, joined by “and”; a condition that tells them apart may be missing. Equal values may be shown once.

Substrate in data set [1]: NC(=O)c1ccc[n+]([C@@H]2O[C@H](COP(=O)([O-])OP(=O)(O)OC[C@H]3O[C@@H](n4cnc5c(N)ncnc54)[C@H](O)[C@@H]3O)[C@@H](O)[C@H]2O)c1
In words: Reaction kinetic analysis: NADH production rate at varied NAD+ concentration. The conditions noted are these: 28° C. Format: biochemical, Pseudomonas stutzeri WM88. An excerpt:
By a well-known method, the base sequence of SEQ ID NO: 2 or a phosphite dehydrogenase gene (SEQ ID NO: 4) of P stutzeri WM88 was inserted into a plasmid pET21b (produced by Novagen) (an amino acid sequence of the protein encoded by the base sequence of SEQ ID NO: 4 is shown in SEQ ID NO: 3) to prepare (i) an expression vector of a fusion protein (see “PtxD4506” in FIG. 2) in which the C-terminal of the phosphite dehydrogenase protein of SEQ ID NO: 1 is labeled with a His tag or (ii) an expression vector of a fusion protein (see “PtxDPst” in FIG. 2) in which the C-terminal of the phosphite dehydrogenase protein of P stutzeri WM88 is labeled with a His tag.
The supernatant was supplied to a HisTrap column (produced by GE Healthcare) and, in accordance with protocols attached to the HisTrap column, a fusion protein in which a His tag was connected to the C-terminal of the phosphite dehydrogenase protein of SEQ ID NO: 1 was purified.
PtxD4506 and PtxDPst, which were purified with use of the HisTrap column in [3. Expression of Phosphite Dehydrogenase Protein By Using Escherichia Coli], were compared with each other in terms of reaction rate. The following description discusses how measurement of reaction rates was carried out.
Reaction rates of respective PtxD4506 and PtxDPst were calculated on the basis of (Reaction formula 1) shown in the section [Background Art].
Specifically, in the reaction system of (Reaction formula 1), a production rate of NADH was measured with use of 7.5 μg of each of the fusion proteins PtxD4506 and PtxDPst while a concentration of a substrate (NAD^+) was gradually changed from 0.5 μM to 200 μM. Note that a reaction temperature of the fusion protein PtxD4506 was 40° C., and a reaction temperature of the fusion protein PtxDPst was 28° C.
Based on the measured concentration of the substrate (NAD^+) and the measured production rate of NADH, values of Km (μM), Vmax (μmol/min/m), Kcat (min^−1), and Kcat/km were calculated in accordance with a well-known enzyme kinetic method (see, for example, “Fundamental Experiment Method of Proteins and Enzymes (2nd revised edition), Nankodo Co., Ltd.”). Note that the experiment was carried out three times, and values of Km, Vmax, Kcat, and Kcat/km were calculated in each of the experiments. Then, for each of Km, Vmax, Kcat, and Kcat/km, an average of the values calculated in the three experiments was obtained and defined as the value of each of Km, Vmax, Kcat, and Kcat/km. Kcat was calculated by the formula: Kcat=Vmax (μmol/min/mg)×(MW/10^3).

Substrate in data set [2]: NC(=O)c1ccc[n+]([C@@H]2O[C@H](COP(=O)([O-])OP(=O)(O)OC[C@H]3O[C@@H](n4cnc5c(N)ncnc54)[C@H](O)[C@@H]3O)[C@@H](O)[C@H]2O)c1
In words: purified protein, by the assay type. The conditions noted are these: 40° C.

The mark [3] stands for this setting: other: NAD+ 0.5 μM to 200 μM, individual experiments 1-3.
Setting [4] is: other: NAD+, average of three experiments.

B1: Pseudomonas stutzeri WM88 phosphite dehydrogenase, wild type, SEQ ID NO: 3, C-terminal His tag fusion (PtxDPst) (Stutzerimonas stutzeri) (protein)
chain: MLPKLVITHRVHDEILQLLAPHCELMTNQTDSTLTREEILRRCRDAQAMMAFMPDRVDADFLQACPELRVVGCALKGFDNFDVDACTARGVWLTFVPDLLTVPTAELAIGLAVGLGRHLRAADAFVRSGEFQGWQPQFYGTGLDNATVGILGMGAIGLAMADRLQGWGATLQYHEAKALDTQTEQRLGLRQVACSELFASSDFILLALPLNADTQHLVNAELLALVRPGALLVNPCRGSVVDEAAVLAALERGQLGGYAADVFEMEDWARADRPRLIDPALLAHPNTLFTPHIGSAVRAVRLEIERCAAQNIIQVLAGARPINAANRLPKAEPAAC
notes: His tag (C); made in house; host or cells: E. coli Rosetta2 (DE3), plasmid pET21b
In general, Km refers to the substrate concentration at which the rate is half of its maximum. Usually Vmax stands for the top rate of the reaction or transport when substrate is in excess. In general, kcat refers to the number of substrate molecules converted per active site and unit of time at saturation. Consider B1, for which the Km in data set [1] (setting [3]) was 74.4 µM and 71.2 µM and 74.7 µM. Besides, in data set [1] (setting [4]), the Km came to 73.4 µM, the Vmax is 4.2 µmol/min/mg and the kcat came to 2.827 s⁻¹.

B2: Ralstonia sp. strain 4506 phosphite dehydrogenase, SEQ ID NO: 1, C-terminal His tag fusion (PtxD4506) (Ralstonia sp. 4506) (protein)
chain: MKPKVVLTHWVHPEIIELLSASADVIPNTTRETLPRSEVIARAKDADALMAFMPDSIDSAFLEECPKLRVIGAALKGYDNFDVNACTRHGVWLTIVPDLLTIPTAELTIGLLLGLTRHMLEGDRQIRSGHFQGWRPTLYGSGLTGKTLGIIGMGAVGRAIAQRLAGFEMNLLYCDPIPLNAEQEKAWHVQRVTLDELLEKCDYVVPMVPMAAETLHLIDATALAKMKTGSYLINACRGSVVDENAVIAALASGKLAGYAADVFEMEEWIRADRPQAIPKALLDNTAQTFFTPHLGSAVKEVRLEIERQAAMNIIQALAGEKPMGAINQPYPGVKAA
With B2, the Km in data set [2] (setting [3]) is 22.6 µM and 23.3 µM and 25.1 µM. Moreover, in data set [2] (setting [4]), the Km was 23.7 µM, the Vmax was 5.9 µmol/min/mg and the kcat was determined as 3.957 s⁻¹.
